{
  "source": "patent US20230151437A1",
  "about": "“USE OF PROTEIN ASSEMBLIES TO RECORD CELLULAR EVENTS” (President and Fellows of Harvard College, priority 2021, published 2023)",
  "molecules": {"B1": {"name": "iPAK4: fusion of the catalytic domain of the Pak4 kinase and the 38 amino acid iBox domain of its inhibitor Inka1 (SEQ ID NO: 1) (protein)", "chain": "MDYKDDDDKSGSEAEDWTAALLNRGRSRQPLVLGDNCFADLVHNWMELPEEFPAAPAVPGPPGPRSPQREPQRVSHEQFRAALQLVVDPGDPRSYLDNFIKIGEGSTGIVCIATVRSSGKLVAVKKMDLRKQQRRELLFNEVVIMRDYQHENVVEMYNSYLVGDELWVVMEFLEGGALTDIVTHTRMNEEQIAAVCLAVLQALSVLHAQGVIHRDIKSDSILLTHDGRVKLSDFGFCAQVSKEVPRRKSLVGTPYWMAPELISRLPYGPEVDIWSLGIMVIEMVDGEPPYFNEPPLKAMKMIRDNLPPRLKNLHKVSPSLKGFLDRLLVRDPAQRATAAELLKHPFLAKAGPPASIVPLMRQNRTR"}},
  "key": {"HEK cells [1]": {"system": "HEK cells", "assay": "HT dye switch fluorescence profiles of HT-iPAK4 assemblies in HEK cells", "assay_type": "cell-based", "conditions": "dishes fixed at 8 h vs 30 h (22 h, one day)", "description": "To test whether assemblies could encode HT dye timestamps, HEK cells growing HT-iPAK4 assemblies were successively washed with different colors of HT-ligand dyes at Δt=2 h intervals in the sequence JF503, JF669, JFX608, JF503, JF669 (FIG. 2A; see FIGS. 11A-11B for dye structures, photophysical properties, and synthesis of JFX608). The cells were then fixed and imaged with spectrally resolved confocal microscopy. Clear progression of colored bands matching the sequence of dye additions was observed.\nTo test the limits of how fast dye transitions could be encoded, assemblies were made with seven dye switches at Δt=1 h. At this short interval, peaks were still visible, but their amplitude was suppressed relative to the parts of the assembly with no dye switches, indicating incomplete transitions in dye labeling (FIG. 12E).\nA protein ticker tape may stably store its information for extended times. […] The fluorescence profiles for the section of the assemblies that grew concurrently (from t=0 to 8 h) were then compared. […]\nImage processing and data analysis: Images of individual assemblies were rotated to align the long axis to the x-axis. Fluorescence profiles were then calculated as the median fluorescence in each spectral channel across the width of the assembly. […] Dye transitions were identified as local maxima in the second derivative of the dye fluorescence as a function of position. […]"}, "HEK cells [2]": {"system": "HEK cells", "assay": "Live-dead assay in HEK cells expressing iPAK4 assemblies", "assay_type": "cell-based", "conditions": "n=24 fields of view", "source_text": "FIGS. 9A-9C show a live-dead assay to assess the effect of iPAK4 assemblies on cell health. Related to FIG. 1A, FIG. 9A provides images of HEK293T cells expressing CMV::iPAK4 (95%) and CMV::HT-iPAK4 (5%). Many iPAK4 assemblies can be identified in a magnified view. […] Live cells (calcein-AM), dead cells (EthD-1), and HaloTag-iPAK4 stained with JFX608 are shown. FIG. 9C provides a statistical comparison of the dead cell population in iPAK4+ and iPAK4− groups. Each point represents one field of view. Two dishes per condition were investigated. […] The statistical comparison was performed by student's t-test. Lower and upper bounds of the box plot: 25th and 75th percentile; lower and upper whiskers: minimum and maximum; squares: mean; center lines: median.\nIt was then determined whether the iPAK4 assemblies affect cell survival, as the assemblies often grew longer than the cell diameters (FIG. 6A)."}, "cultured neurons [3]": {"system": "cultured neurons", "assay": "Patch clamp electrophysiology of neurons with iPAK4 assemblies", "assay_type": "cell-based, rat", "conditions": "N=11, mean±s.e.m.", "description": "FIGS. 5A-5H show protein ticker tape recordings of cFos activation in neurons. FIG. 5A provides an image of a cultured neuron expressing lentiviral CMV::iPAK4 (90%) and CMV::eGFP-iPAK4 (10%). Scale bar 50 μm. […] Spikes were evoked by a current injection of 100 pA. […] Error bars show mean±s.e.m. Two-sided Student's t-test was employed for data comparison. […] Scale bar 5 μm.\nWhether iPAK4 assemblies affected neuronal electrophysiology was then tested. Neurons infected with lentivirus encoding CMV::iPAK4 (90%) and CMV::eGFP-iPAK4 (10%) grew single straight assemblies (FIG. 5A). Patch clamp recordings were used to compare the electrophysiology of neurons with and without assemblies. Although in many cases the assembly length was several times longer than the soma diameter, neurons with assemblies spiked normally (FIG. 5B), and had membrane resistance, membrane capacitance, resting potential, and rheobase that were statistically indistinguishable from neurons without assemblies (N=11 neurons with assemblies, N=12 without, two-sided Student's t-test, FIG. 5C).\nPatch clamp electrophysiology: Whole-cell recordings were performed in extracellular buffer containing (in mM): 125 NaCl, 2.5 KCl, 15 HEPES, 25 D-glucose, 1 MgCl2, and 2 CaCl2 (pH=7.2-7.3 with NaOH). Assembly-forming and non-forming (control) neurons were visualized with a home-built inverted epifluorescence microscope. Experiments were made at 23° C. under ambient atmosphere. The whole-cell internal solution comprised (in mM): 8 NaCl, 130 KMeSO3, 10 HEPES, 5 KCl, 0.5 EGTA, 4 Mg-ATP, and 0.3 Na3-GTP. The pH was adjusted to 7.2-7.3 with KOH and osmolarity was set to 290-295 mOsm/L. Borosilicate glass pipettes were used with a resistance of 3-5 MΩ (1.5 mm OD). Signals were acquired and filtered at 4 kHz with the internal Bessel filter using a Multiclamp 700B (Molecular Devices) and digitized with PCIe-6323 (National Instruments) at 10 kHz. Following the whole-cell configuration, membrane capacitance (Cm), and membrane resistance (Rm) were estimated under voltage-clamp mode. Measurements of resting membrane potential (Vrest), rheobase, and spike rates were made under current-clamp mode. Rheobase was defined as the minimum current step (in 500 ms duration) required for any spike onset. Whole-cell recordings were monitored and analyzed using a custom code written in LabView and Matlab."}, "cultured neurons [4]": {"system": "cultured neurons", "assay": "Live-dead assay in cultured neurons expressing iPAK4 assemblies", "assay_type": "cell-based, rat", "conditions": "assemblies grown for 6 days", "description": "Related to FIG. 5. […] Staining of live cells (calcein-AM) and dead cells (EthD-1) is shown. The assay was performed at day 6 after lentiviral infection. Many iPAK4 assemblies are present in FIG. 22A (assemblies share the channel with calcein-AM). Scale bars: 200 μm. FIG. 22C provides a statistical comparison of the live-cell and dead-cell populations, and the dead/live cell ratio in iPAK4+ and iPAK4− groups (N=5 fields of view per group).\nTo test for effects of iPAK4 assemblies on neuronal survival, iPAK4 (95%) and HT-iPAK4 (5%) were lentivirally expressed in cultured neurons, the assemblies were allowed to grow for 6 days, and then a live-dead assay was performed (FIGS. 22A-22C). […] The iPAK4-expressing neurons had typical soma and neurite structures, similar to those observed in healthy neurons.\nPrimary neuron culture: Before the plating of primary hippocampal neurons, 14 mm glass-bottom dishes were first incubated with 40 μg/ml poly-D-lysine (PDL) in PBS at room temperature for 1 h and subsequentially with 20 μg/ml laminin (Fisher Scientific; 23-017-015) at 4° C. overnight, followed by thorough wash with PBS. […] Neuronal health was monitored daily from DIV1 to DIV7. […]"}},
  "data": [
    {"molecule": "B1", "values": [
      {"measurement": "monomer exchange in the assembly", "setting": "HEK cells [1]", "result": "negligible"},
      {"measurement": "dead cells", "setting": "HEK cells [2]", "result": "0.267±0.139", "unit": "%"},
      {"measurement": "membrane capacitance", "setting": "cultured neurons [3]", "result": "63±6", "unit": "pF"},
      {"measurement": "membrane resistance", "setting": "cultured neurons [3]", "result": "404±73", "unit": "MΩ"},
      {"measurement": "resting potential", "setting": "cultured neurons [3]", "result": "−61.2±1.2", "unit": "mV"},
      {"measurement": "rheobase", "setting": "cultured neurons [3]", "result": "89±12", "unit": "pA"},
      {"measurement": "fraction of dead cells vs dishes not infected with any lentivirus", "setting": "cultured neurons [4]", "result": "no significant difference"}
    ]}
  ]
}
